# B1: Matrilin-3 (Homo sapiens), O15232 (parent)
# chain: MPRPAPARRLPGLLLLLWPLLLLPSAAPDPVARPGFRRLETRGPGGSPGRRPSPAAPDGAPASGTSEPGRARGAGVCKSRPLDLVFIIDSSRSVRPLEFTKVKTFVSRIIDTLDIGPADTRVAVVNYASTVKIEFQLQAYTDKQSLKQAVGRITPLSTGTMSGLAIQTAMDEAFTVEAGAREPSSNIPKVAIIVTDGRPQDQVNEVAARAQASGIELYAVGVDRADMASLKMMASEPLEEHVFYVETYGVIEKLSSRFQETFCALDPCVLGTHQCQHVCISDGEGKHHCECSQGYTLNADKKTCSALDRCALNTHGCEHICVNDRSGSYHCECYEGYTLNEDRKTCSAQDKCALGTHGCQHICVNDRTGSHHCECYEGYTLNADKKTCSVRDKCALGSHGCQHICVSDGAASYHCDCYPGYTLNEDKKTCSATEEARRLVSTEDACGCEATLAFQDKVSSYLQRLNTKLDDILEKLKINEYGQIHR
# partner: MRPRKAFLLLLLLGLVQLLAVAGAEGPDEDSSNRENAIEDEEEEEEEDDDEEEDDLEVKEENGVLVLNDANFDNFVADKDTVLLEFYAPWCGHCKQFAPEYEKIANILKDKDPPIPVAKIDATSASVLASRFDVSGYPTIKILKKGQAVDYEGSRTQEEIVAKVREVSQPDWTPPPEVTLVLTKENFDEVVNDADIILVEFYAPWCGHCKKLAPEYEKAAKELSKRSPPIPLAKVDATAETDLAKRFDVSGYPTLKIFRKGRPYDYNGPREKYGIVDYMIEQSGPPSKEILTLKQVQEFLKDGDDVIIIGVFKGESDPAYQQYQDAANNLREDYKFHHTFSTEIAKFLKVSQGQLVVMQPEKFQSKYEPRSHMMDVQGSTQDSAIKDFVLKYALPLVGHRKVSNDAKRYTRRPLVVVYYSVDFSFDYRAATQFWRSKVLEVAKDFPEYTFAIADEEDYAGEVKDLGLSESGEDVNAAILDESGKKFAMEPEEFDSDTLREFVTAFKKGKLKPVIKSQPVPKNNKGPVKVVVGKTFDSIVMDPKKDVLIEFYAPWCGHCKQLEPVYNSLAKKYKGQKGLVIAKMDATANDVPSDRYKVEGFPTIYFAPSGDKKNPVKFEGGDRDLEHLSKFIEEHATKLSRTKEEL
# Variants of: B1
# Details: with pdia4_human PDIA4, P13667
row,Variant,effect of a mutation on the interaction
1,R121W,causing an interaction
2,V194D,causing an interaction

# Continued, values first:
row,effect of a mutation on the interaction,Variant
1,with no effect,E252K
2,causing an interaction,A219D

# From IntAct's records for PubMed 16287128
